Experimental data taken from IntAct's records for PubMed 12649160.

B1: Fanconi anemia group C protein (Homo sapiens), Q00597 (parent)
chain: MAQDSVDLSCDYQFWMQKLSVWDQASTLETQQDTCLHVAQFQEFLRKMYEALKEMDSNTVIERFPTIGQLLAKACWNPFILAYDESQKILIWCLCCLINKEPQNSGQSKLNSWIQGVLSHILSALRFDKEVALFTQGLGYAPIDYYPGLLKNMVLSLASELRENHLNGFNTQRRMAPERVASLSRVCVPLITLTDVDPLVEALLICHGREPQEILQPEFFEAVNEAILLKKISLPMSAVVCLWLRHLPSLEKAMLHLFEKLISSERNCLRRIECFIKDSSLPQAACHPAIFRVVDEMFRCALLETDGALEIIATIQVFTQCFVEALEKASKQLRFALKTYFPYTSPSLAMVLLQDPQDIPRGHWLQTLKHISELLREAVEDQTHGSCGGPFESWFLFIHFGGWAEMVAEQLLMSAAEPPTALLWLLAFYYGPRDGRQQRAQTMVQVKAVLGHLLAMSRSSSLSAQDLQTVAGQGTDTDLRAPAQQLIRHLLLNFLLWAPGGHTIAWDVITLMAHTAEITHEIIGFLDQTLYRWNRLGIESPRSEKLARELLKELRTQV
partner: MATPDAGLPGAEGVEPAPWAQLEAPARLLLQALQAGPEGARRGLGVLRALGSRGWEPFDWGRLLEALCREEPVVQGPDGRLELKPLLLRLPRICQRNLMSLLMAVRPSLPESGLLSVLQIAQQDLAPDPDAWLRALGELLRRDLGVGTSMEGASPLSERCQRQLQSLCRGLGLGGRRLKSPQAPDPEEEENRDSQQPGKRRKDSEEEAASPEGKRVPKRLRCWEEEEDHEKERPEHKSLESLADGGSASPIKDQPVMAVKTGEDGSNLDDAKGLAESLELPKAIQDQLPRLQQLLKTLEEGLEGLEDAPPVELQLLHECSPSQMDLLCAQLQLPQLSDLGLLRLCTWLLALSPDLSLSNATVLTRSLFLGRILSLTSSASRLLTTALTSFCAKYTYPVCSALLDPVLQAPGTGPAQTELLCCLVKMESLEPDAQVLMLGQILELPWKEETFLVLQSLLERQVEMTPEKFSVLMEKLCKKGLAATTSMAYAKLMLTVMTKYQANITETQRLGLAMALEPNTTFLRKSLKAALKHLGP
B2: Fanconi anemia group G protein (Homo sapiens), O15287 (parent)
chain: MSRQTTSVGSSCLDLWREKNDRLVRQAKVAQNSGLTLRRQQLAQDALEGLRGLLHSLQGLPAAVPVLPLELTVTCNFIILRASLAQGFTEDQAQDIQRSLERVLETQEQQGPRLEQGLRELWDSVLRASCLLPELLSALHRLVGLQAALWLSADRLGDLALLLETLNGSQSGASKDLLLLLKTWSPPAEELDAPLTLQDAQGLKDVLLTAFAYRQGLQELITGNPDKALSSLHEAASGLCPRPVLVQVYTALGSCHRKMGNPQRALLYLVAALKEGSAWGPPLLEASRLYQQLGDTTAELESLELLVEALNVPCSSKAPQFLIEVELLLPPPDLASPLHCGTQSQTKHILASRCLQTGRAGDAAEHYLDLLALLLDSSEPRFSPPPSPPGPCMPEVFLEAAVALIQAGRAQDALTLCEELLSRTSSLLPKMSRLWEDARKGTKELPYCPLWVSATHLLQGQAWVQLGAQKVAISEFSRCLELLFRATPEEKEQGAAFNCEQGCKSDAALQQLRAAALISRGLEWVASGQDTKALQDFLLSVQMCPGNRDTYFHLLQTLKRLDRRDEATALWWRLEAQTKGSHEDALWSLPLYLESYLSWIRPSDRDAFLEEFRTSLPKSCDL
partner: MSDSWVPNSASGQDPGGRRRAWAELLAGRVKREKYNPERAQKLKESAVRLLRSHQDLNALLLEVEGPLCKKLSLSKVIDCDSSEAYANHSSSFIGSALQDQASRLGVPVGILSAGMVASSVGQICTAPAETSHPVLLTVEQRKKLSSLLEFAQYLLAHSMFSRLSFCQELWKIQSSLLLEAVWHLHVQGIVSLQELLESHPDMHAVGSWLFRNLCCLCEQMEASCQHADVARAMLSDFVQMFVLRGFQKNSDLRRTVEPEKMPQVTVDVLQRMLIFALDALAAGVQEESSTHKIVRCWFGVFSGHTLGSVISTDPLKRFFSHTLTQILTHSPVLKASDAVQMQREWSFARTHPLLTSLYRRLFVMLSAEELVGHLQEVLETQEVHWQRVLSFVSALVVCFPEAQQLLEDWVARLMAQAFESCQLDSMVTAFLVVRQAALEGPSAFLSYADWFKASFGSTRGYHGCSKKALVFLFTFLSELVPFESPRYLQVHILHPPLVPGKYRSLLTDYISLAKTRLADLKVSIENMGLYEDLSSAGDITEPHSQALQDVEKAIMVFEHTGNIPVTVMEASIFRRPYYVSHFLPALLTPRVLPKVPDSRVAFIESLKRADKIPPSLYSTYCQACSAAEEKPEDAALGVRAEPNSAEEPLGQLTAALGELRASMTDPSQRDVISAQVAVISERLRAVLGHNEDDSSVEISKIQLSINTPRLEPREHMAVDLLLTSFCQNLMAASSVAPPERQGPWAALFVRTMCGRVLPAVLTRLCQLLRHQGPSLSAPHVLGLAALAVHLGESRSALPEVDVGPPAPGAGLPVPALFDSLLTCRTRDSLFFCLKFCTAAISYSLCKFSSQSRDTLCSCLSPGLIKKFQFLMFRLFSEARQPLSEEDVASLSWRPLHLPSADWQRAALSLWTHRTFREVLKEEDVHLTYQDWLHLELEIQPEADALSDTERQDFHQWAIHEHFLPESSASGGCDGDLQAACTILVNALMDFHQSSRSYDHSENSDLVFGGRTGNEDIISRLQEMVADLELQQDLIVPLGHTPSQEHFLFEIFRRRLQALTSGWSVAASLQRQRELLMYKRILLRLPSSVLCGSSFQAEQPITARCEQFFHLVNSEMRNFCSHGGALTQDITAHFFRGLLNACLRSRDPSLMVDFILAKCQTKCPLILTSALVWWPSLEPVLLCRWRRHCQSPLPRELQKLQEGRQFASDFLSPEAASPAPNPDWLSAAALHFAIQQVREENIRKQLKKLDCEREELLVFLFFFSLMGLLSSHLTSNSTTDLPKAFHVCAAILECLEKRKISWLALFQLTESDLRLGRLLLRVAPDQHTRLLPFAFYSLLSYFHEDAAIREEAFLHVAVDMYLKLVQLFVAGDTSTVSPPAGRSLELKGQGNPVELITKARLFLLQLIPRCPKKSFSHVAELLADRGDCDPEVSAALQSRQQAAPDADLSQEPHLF

Variants of: B1
Details: with fance_human FANCE

Variant	effect of a mutation on the interaction
L554P	disrupting interaction

Variants of: B2
Details: with fanca_human FANCA

Variant	effect of a mutation on the interaction
L71P	disrupting interaction
